These results are taken from US20160355553A1 (Janssen / Centocor, published 2016).

The target in assay [1] is H3 Mini-HA cluster 1+5 N405A (influenza A virus H3N2, UniProt O11283 17-566). Nature of the assay: FACS on HEK293F [D00010 FIG. 8B].
Assay [2] deals with H3 Mini-HA cluster 1+5 N405D (influenza A virus H3N2, UniProt O11283 17-566). Description: FACS on HEK293F [D00010 FIG. 8B].
Assay [3] concerns the target H3 Mini-HA cluster 1+5 N405E (influenza A virus H3N2, UniProt O11283 17-566). Description: FACS on HEK293F [D00010 FIG. 8B].
Assay [4] deals with H3 Mini-HA cluster 1+2+3+4+5+6+7-N405E (influenza A virus H3N2, UniProt O11283 17-566). Nature of the assay: FACS, HEK293F cells.
Assay [5] deals with H3 Mini-HA cluster 1+2+3+4+5+6+7-N405A (influenza A virus H3N2, UniProt O11283 17-566). Description: FACS, HEK293F cells.
For assay [6], the target named is H3 Mini-HA cluster 1+2+3+4+5+6+7-N405D (influenza A virus H3N2, UniProt O11283 17-566). Nature of the assay: FACS, HEK293F cells.
Assay [7] concerns the target full-length HA of H1 A/Brisbane/59/2007 with cleavage site mutation R343Q (influenza A virus H1N1, UniProt B4URD6 18-565). Description: FACS, HEK293F cells.
Assay [8] deals with miniHA cluster1+4 (A/Brisbane/59/2007) (influenza A virus H1N1, UniProt A8C8J4 18-565). Nature of the assay: FACS on HEK293F.

B1: CR6261 (antibody, V domains shown)
VH: EVQLVESGAEVKKPGSSVKVSCKASGGPFRSYAISWVRQAPGQGPEWMGGIIPIFGTTKYAPKFQGRVTITADDFAGTVYMELSSLRSEDTAMYYCAKHMGYQVRETMDVWGKGTTVTVSS
VL: QSVLTQPPSVSAAPGQKVTISCSGSSSNIGNDYVSWYQQLPGTAPKLLIYDNNKRPSGIPDRFSGSKSGTSATLGITGLQTGDEANYYCATWDRRPTAYVVFGGGTKLTVLG
As to B1, the binding result in assay [1], in assay [2] and in assay [3] was “no binding (tested: 5 ug/ml)” in each case.

B2: CR9114 (antibody, V domains shown)
VH: QVQLVQSGAEVKKPGSSVKVSCKSSGGTSNNYAISWVRQAPGQGLDWMGGISPIFGSTAYAQKFQGRVTISADIFSNTAYMELNSLTSEDTAVYFCARHGNYYYYSGMDVWGQGTTVTVSS
VL: SYVLTQPPAVSGTPGQRVTISCSGSDSNIGRRSVNWYQQFPGTAPKLLIYSNDQRPSVVPDRFSGSKSGTSASLAISGLQSEDEAEYYCAAWDDSLKGAVFGGGTQLTVL
For B2, the binding result is listed as “no binding (tested: 5 microgram/ml)” in assay [4]; “no binding (tested: 5 microgram/ml)” in assay [5]; “no binding (tested: 5 microgram/ml)” in assay [6]; “no binding (tested: 5 ug/ml)” in assay [1]; “no binding (tested: 5 ug/ml)” in assay [2]; “no binding (tested: 5 ug/ml)” in assay [3].

B3: CR8057 (antibody, V domains shown)
VH: EVQLVESGGGLVQPGGSLRLSCAASGFTDSVIFMSWVRQAPGKGLECVSIIYIDDSTYYADSVKGRFTISRHNSMGTVFLEMNSLRPDDTAVYYCATESGDFGDQTGPYHYYAMDV
VL: QSALTQPASVSGSPGQSITISCTGSSGDIGGYNAVSWYQHHPGKAPKLMIYEVTSRPSGVSDRFSASRSGDTASLTVSGLQAEDEAHYYCCSFADSNILI
Regarding B3, the binding result was “no binding (tested: 5 microgram/ml)” in assay [7]; “no binding (tested: 5 ug/ml)” in assay [8]; “no binding (tested: 5 ug/ml)” in assay [1]; “no binding (tested: 5 ug/ml)” in assay [2]; “no binding (tested: 5 ug/ml)” in assay [3].
